Laboratory results: PMC7794802, “The Interactome of Cancer-Related Lysyl Oxidase and Lysyl Oxidase-Like Proteins” (Cancers, 2020)
Values belong to the molecule of their own block, whether it stands above or below them.

Assays:
[1] = target: human α5β1 integrin, full-length (Millipore CC1027) (human) (UniProt P08648); assay: BLI; inhibition: α5β1 integrin at 35.5 µg/mL preincubated one hour at room temperature with or without RGD peptide at 50 µg/mL, then LOXL2-coated AR2G sensor dipped in it; same buffer as the kinetics
Chain of human α5β1 integrin, full-length (Millipore CC1027) (human) (P08648 42-1049, chain 1 of 2): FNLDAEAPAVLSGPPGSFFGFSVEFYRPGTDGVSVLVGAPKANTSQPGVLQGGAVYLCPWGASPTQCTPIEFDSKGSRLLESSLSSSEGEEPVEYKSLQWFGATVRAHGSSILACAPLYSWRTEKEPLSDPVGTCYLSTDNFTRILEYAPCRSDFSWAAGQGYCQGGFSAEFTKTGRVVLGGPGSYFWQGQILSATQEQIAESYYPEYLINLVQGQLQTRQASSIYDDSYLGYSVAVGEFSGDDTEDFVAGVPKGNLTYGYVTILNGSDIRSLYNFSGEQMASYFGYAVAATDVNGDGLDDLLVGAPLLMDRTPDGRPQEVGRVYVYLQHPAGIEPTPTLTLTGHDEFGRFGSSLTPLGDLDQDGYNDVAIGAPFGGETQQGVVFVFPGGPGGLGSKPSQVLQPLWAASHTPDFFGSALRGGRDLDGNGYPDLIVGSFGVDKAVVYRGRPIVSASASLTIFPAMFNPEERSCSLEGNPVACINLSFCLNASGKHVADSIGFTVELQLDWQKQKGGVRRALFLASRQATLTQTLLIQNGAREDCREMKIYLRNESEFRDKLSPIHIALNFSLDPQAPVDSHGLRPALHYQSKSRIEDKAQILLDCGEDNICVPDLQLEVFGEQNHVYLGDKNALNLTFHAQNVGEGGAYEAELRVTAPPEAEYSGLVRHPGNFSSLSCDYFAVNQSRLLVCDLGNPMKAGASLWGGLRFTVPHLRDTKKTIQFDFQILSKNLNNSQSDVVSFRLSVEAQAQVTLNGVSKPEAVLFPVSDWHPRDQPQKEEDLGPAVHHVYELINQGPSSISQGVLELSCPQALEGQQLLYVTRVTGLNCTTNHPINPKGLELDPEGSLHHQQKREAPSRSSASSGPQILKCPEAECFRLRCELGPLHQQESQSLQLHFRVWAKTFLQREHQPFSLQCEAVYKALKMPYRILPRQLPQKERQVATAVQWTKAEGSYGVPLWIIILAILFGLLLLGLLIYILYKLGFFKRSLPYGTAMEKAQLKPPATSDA
Chain of human α5β1 integrin, full-length (Millipore CC1027) (human) (P05556 21-798, chain 2 of 2, further chain): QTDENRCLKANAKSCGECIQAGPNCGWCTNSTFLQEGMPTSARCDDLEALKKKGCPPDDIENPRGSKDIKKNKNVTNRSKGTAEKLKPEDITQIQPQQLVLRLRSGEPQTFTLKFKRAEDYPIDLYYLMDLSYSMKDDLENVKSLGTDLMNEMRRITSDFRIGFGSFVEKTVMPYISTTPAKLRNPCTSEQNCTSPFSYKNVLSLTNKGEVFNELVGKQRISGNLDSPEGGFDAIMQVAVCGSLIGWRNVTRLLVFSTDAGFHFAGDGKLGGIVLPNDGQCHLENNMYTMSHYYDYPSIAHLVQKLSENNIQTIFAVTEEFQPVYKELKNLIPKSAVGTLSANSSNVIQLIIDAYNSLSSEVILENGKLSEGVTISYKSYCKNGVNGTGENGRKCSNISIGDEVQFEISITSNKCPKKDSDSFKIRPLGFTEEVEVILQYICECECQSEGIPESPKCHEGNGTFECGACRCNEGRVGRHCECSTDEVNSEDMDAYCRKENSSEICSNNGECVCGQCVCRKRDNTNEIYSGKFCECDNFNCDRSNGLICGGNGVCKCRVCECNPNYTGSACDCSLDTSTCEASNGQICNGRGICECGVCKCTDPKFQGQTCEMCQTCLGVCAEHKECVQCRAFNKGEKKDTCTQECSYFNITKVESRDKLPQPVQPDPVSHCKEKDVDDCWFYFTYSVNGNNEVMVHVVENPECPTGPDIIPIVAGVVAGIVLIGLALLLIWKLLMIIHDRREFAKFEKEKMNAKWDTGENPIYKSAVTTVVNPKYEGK

SPARC = target: T1, SPARC (UniProt P09486 18-303); assay: SPR; BIAcore T100; ligands covalently immobilised by amine coupling on CM5 or CM3 (collagen XVII) sensor chips; LOXL2, SRCR 1-2 and SRCR 1-4 injected in 10 mM Hepes pH 7.4, 150 mM NaCl, 0.05% P20
T1 construct: SPARC; also called immobilized SPARC
T1 sequence (looked up): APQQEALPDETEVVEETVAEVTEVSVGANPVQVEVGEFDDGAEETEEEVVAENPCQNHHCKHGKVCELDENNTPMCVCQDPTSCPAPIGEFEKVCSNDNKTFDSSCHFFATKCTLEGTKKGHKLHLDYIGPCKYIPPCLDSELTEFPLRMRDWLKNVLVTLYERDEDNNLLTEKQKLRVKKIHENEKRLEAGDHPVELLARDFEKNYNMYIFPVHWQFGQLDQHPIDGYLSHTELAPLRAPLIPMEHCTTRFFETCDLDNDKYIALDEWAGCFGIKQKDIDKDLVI

[2] = target: T2, human α5β1 integrin, full-length (Millipore CC1027) (human, UniProt P08648 42-1049; P05556 21-798); assay: SPR; SPR imaging, BIAcore Flexchip; α5β1 integrin (29.3 µg/mL) as analyte recirculated over ECM arrays including spotted LOXL2; 10 mM Hepes pH 7.4, 150 mM NaCl, 50 mM β-octyl-D-glucopyranoside, 2 mM MgCl2, 2 mM MnCl2; conditions: both partners purified
T2 construct: integrin alpha-5 subunit of human α5β1 integrin; integrin beta-1 subunit of human α5β1 integrin; Used in buffer with 50 mM β-octyl-D-glucopyranoside, MgCl2 and MnCl2; The source is told for the BLI assays only; also called full-length α5β1 integrin; source: bought: Millipore, Merck, CC1027
T2 sequence (P08648 42-1049, chain 1 of 2): as the sequence (P08648 42-1049, chain 1 of 2) above
T2 sequence (P05556 21-798, chain 2 of 2): as the sequence (P05556 21-798, chain 2 of 2, further chain) above

[3] = target: T2, human α5β1 integrin, full-length …; assay: BLI; inhibition: α5β1 integrin at 35.5 µg/mL preincubated one hour at room temperature with or without RGD peptide at 50 µg/mL, then LOXL2-coated AR2G sensor dipped in it; same buffer as the kinetics; conditions: both partners purified

Molecule: RGD peptide (Sigma-Aldrich, A8052)
percent decrease of the binding of α5β1 integrin to LOXL2 [1]: 24.9%

B3: LOXL2 N-terminal scavenger receptor cysteine-rich domains SRCR 1-2 (residues 58-302) (domain or fragment, UniProt Q9Y4K0 58-302, looked up)
chain: LRLAGQKRKHSEGRVEVYYDGQWGTVCDDDFSIHAAHVVCRELGYVEAKSWTASSSYGKGEGPIWLDNLHCTGNEATLAACTSNGWGVTDCKHTEDVGVVCSDKRIPGFKFDNSLINQIENLNIQVEDIRIRAILSTYRKRTPVMEGYVEVKEGKTWKQICDKHWTAKNSRVVCGMFGFPGERTYNTKVYKMFASRRKQRYWPFSMDCTGTEAHISSCKLGPQVSLDPMKNVTCENGLPAVVSCV
notes: LOXL2, SRCR domains 1-2, residues 58-302; also called SRCR 1-2 domain; source: expressed as recombinant protein as previously described [62]
Kd (SPARC; both partners purified): 21.4 nM

More lines, now with the values ahead:

KD1 (site 1, heterogeneous ligand model) (SPARC): 37.8 nM | KD2 (site 2, heterogeneous ligand model) (SPARC): 41.5 nM | ka1 (site 1, heterogeneous ligand model) (SPARC): 186000 M⁻¹ s⁻¹ | ka2 (site 2, heterogeneous ligand model) (SPARC): 167000 M⁻¹ s⁻¹ | kd1 (site 1, heterogeneous ligand model) (SPARC): 0.00622 s⁻¹ | kd2 (site 2, heterogeneous ligand model) (SPARC): 0.00769 s⁻¹ | binding result [2]: binds
B1: lysyl oxidase-like 2 (LOXL2), full-length recombinant protein (enzyme, UniProt Q9Y4K0 26-774, looked up)
chain: QYDSWPHYPEYFQQPAPEYHQPQAPANVAKIQLRLAGQKRKHSEGRVEVYYDGQWGTVCDDDFSIHAAHVVCRELGYVEAKSWTASSSYGKGEGPIWLDNLHCTGNEATLAACTSNGWGVTDCKHTEDVGVVCSDKRIPGFKFDNSLINQIENLNIQVEDIRIRAILSTYRKRTPVMEGYVEVKEGKTWKQICDKHWTAKNSRVVCGMFGFPGERTYNTKVYKMFASRRKQRYWPFSMDCTGTEAHISSCKLGPQVSLDPMKNVTCENGLPAVVSCVPGQVFSPDGPSRFRKAYKPEQPLVRLRGGAYIGEGRVEVLKNGEWGTVCDDKWDLVSASVVCRELGFGSAKEAVTGSRLGQGIGPIHLNEIQCTGNEKSIIDCKFNAESQGCNHEEDAGVRCNTPAMGLQKKLRLNGGRNPYEGRVEVLVERNGSLVWGMVCGQNWGIVEAMVVCRQLGLGFASNAFQETWYWHGDVNSNKVVMSGVKCSGTELSLAHCRHDGEDVACPQGGVQYGAGVACSETAPDLVLNAEMVQQTTYLEDRPMFMLQCAMEENCLSASAAQTDPTTGYRRLLRFSSQIHNNGQSDFRPKNGRHAWIWHDCHRHYHSMEVFTHYDLLNLNGTKVAEGHKASFCLEDTECEGDIQKNYECANFGDQGITMGCWDMYRHDIDCQWVDITDVPPGDYLFQVVINPNFEVAESDYSNNIMKCRSRYDGHRIWMYNCHIGGSFSEETEKKFEHFSGLLNNQLSPQ
notes: lysyl oxidase-like 2 (LOXL2), full-length recombinant protein made in the laboratory; As a secreted recombinant protein it probably lacks its signal peptide (surmise); also called full-length LOXL2; soluble LOXL2; source: expressed as recombinant protein as previously described [62]

binding result [3]: binds
B2: Recombinant human LOXL2 (R&D Systems, 2639-AO) (enzyme, UniProt Q9Y4K0 26-774, looked up)
chain: B1 chain
notes: recombinant human lysyl oxidase-like 2 (LOXL2), commercial protein; also called immobilized LOXL2; source: bought: R&D Systems, BioTechne, 2639-AO
